Our source for the EC50 values is US20100260668A1 (published 2010).

Sequences and labels used below:
B1: DVD443 (bispecific antibody, IgG1)
VH: QVQLVQSGAEVKKPGASVKISCKASGYSFTAYYIHWVKQAPGQGLEWIGYISSYNGATNYNQKFKGRVTFTTDTSTSTAYMELRSLRSDDTAVYYCARDYDYDVGMDYWGQGTLVTVSSASTKGPEVQLVESGGGLVQPGGSLRLSCAASGFTISDYWIHWVRQAPGKGLEWVAGITPAGGYTYYADSVKGRFTISADTSKNTAYLQMNSLRAEDTAVYYCARFVFFLPYAMDYWGQGTLVTVSS
VL: DIVMTQSPDSLAVSLGERATISCRASESVDNYGISFMKWFQQKPGQPPKLLIYAASNQGSGVPDRFSGSGSGTDFTLTISSLQAEDVAVYYCQQSKEVPWTFGGGTKVEIKRTVAAPDIQMTQSPSSLSASVGDRVTITCRASQDVSTAVAWYQQKPGKAPKLLIYSASFLYSGVPSRFSGSGSGTDFTLTISSLQPEDFATYYCQQSYTTPPTFGQGTKVEIKR
notes: HC linker short, LC linker short; also called DVD443H; DVD443L
B2: DVD461 (bispecific antibody, IgG1)
VH: QVQLVQSGAEVKKPGASVKISCKASGYSFTAYYIHWVKQAPGQGLEWIGYISSYNGATNYNQKFKGRVTFTTDTSTSTAYMELRSLRSDDTAVYYCARDYDYDVGMDYWGQGTLVTVSSASTKGPEVQLVESGGGLVQPGGSLRLSCAASGFTISDYWIHWVRQAPGKGLEWVAGITPAGGYTYYADSVKGRFTISADTSKNTAYLQMNSLRAEDTAVYYCARFVFFLPYAMDYWGQGTLVTVSS
VL: DIVMTQSPDSLAVSLGERATISCRASESVDNYGISFMKWFQQKPGQPPKLLIYAASNQGSGVPDRFSGSGSGTDFTLTISSLQAEDVAVYYCQQSKEVPWTFGGGTKVEIKRTVAAPSVFIFPPDIQMTQSPSSLSASVGDRVTITCRASQDVSTAVAWYQQKPGKAPKLLIYSASFLYSGVPSRFSGSGSGTDFTLTISSLQPEDFATYYCQQSYTTPPTFGQGTKVEIKR
notes: HC linker short, LC linker long; also called DVD461H; DVD461L
B3: DVD455 (bispecific antibody, IgG1)
VH: QVQLVQSGAEVKKPGASVKISCKASGYSFTAYYIHWVKQAPGQGLEWIGYISSYNGATNYNQKFKGRVTFTTDTSTSTAYMELRSLRSDDTAVYYCARDYDYDVGMDYWGQGTLVTVSSASTKGPSVFPLAPEVQLVESGGGLVQPGGSLRLSCAASGFTISDYWIHWVRQAPGKGLEWVAGITPAGGYTYYADSVKGRFTISADTSKNTAYLQMNSLRAEDTAVYYCARFVFFLPYAMDYWGQGTLVTVSS
VL: DIVMTQSPDSLAVSLGERATISCRASESVDNYGISFMKWFQQKPGQPPKLLIYAASNQGSGVPDRFSGSGSGTDFTLTISSLQAEDVAVYYCQQSKEVPWTFGGGTKVEIKRTVAAPDIQMTQSPSSLSASVGDRVTITCRASQDVSTAVAWYQQKPGKAPKLLIYSASFLYSGVPSRFSGSGSGTDFTLTISSLQPEDFATYYCQQSYTTPPTFGQGTKVEIKR
notes: HC linker long, LC linker short; also called DVD455H; DVD455L
B4: DVD463 (bispecific antibody, IgG1)
VH: QVQLVQSGAEVKKPGASVKISCKASGYSFTAYYIHWVKQAPGQGLEWIGYISSYNGATNYNQKFKGRVTFTTDTSTSTAYMELRSLRSDDTAVYYCARDYDYDVGMDYWGQGTLVTVSSASTKGPEVQLVESGGGLVQPGGSLRLSCAASGFTINASWIHWVRQAPGKGLEWVGAIYPYSGYTNYADSVKGRFTISADTSKNTAYLQMNSLRAEDTAVYYCARWGHSTSPWAMDYWGQGTLVTVSS
VL: DIVMTQSPDSLAVSLGERATISCRASESVDNYGISFMKWFQQKPGQPPKLLIYAASNQGSGVPDRFSGSGSGTDFTLTISSLQAEDVAVYYCQQSKEVPWTFGGGTKVEIKRTVAAPSVFIFPPDIQMTQSPSSLSASVGDRVTITCRASQVIRRSLAWYQQKPGKAPKLLIYAASNLASGVPSRFSGSGSGTDFTLTISSLQPEDFATYYCQQSNTSPLTFGQGTKVEIKR
notes: DVD-Ig, outer AB069 / inner AB071; HC linker short, LC linker long; also called DVD463H; DVD463L
B5: DVD449 (bispecific antibody, IgG1)
VH: QVQLVQSGAEVKKPGASVKISCKASGYSFTAYYIHWVKQAPGQGLEWIGYISSYNGATNYNQKFKGRVTFTTDTSTSTAYMELRSLRSDDTAVYYCARDYDYDVGMDYWGQGTLVTVSSASTKGPSVFPLAPEVQLVESGGGLVQPGGSLRLSCAASGFTISDYWIHWVRQAPGKGLEWVAGITPAGGYTYYADSVKGRFTISADTSKNTAYLQMNSLRAEDTAVYYCARFVFFLPYAMDYWGQGTLVTVSS
VL: DIVMTQSPDSLAVSLGERATISCRASESVDNYGISFMKWFQQKPGQPPKLLIYAASNQGSGVPDRFSGSGSGTDFTLTISSLQAEDVAVYYCQQSKEVPWTFGGGTKVEIKRTVAAPSVFIFPPDIQMTQSPSSLSASVGDRVTITCRASQDVSTAVAWYQQKPGKAPKLLIYSASFLYSGVPSRFSGSGSGTDFTLTISSLQPEDFATYYCQQSYTTPPTFGQGTKVEIKR
notes: HC linker long, LC linker long; also called DVD449H; DVD449L
B6: DVD464 (bispecific antibody, IgG1)
VH: EVQLVESGGGLVQPGGSLRLSCAASGFTINASWIHWVRQAPGKGLEWVGAIYPYSGYTNYADSVKGRFTISADTSKNTAYLQMNSLRAEDTAVYYCARWGHSTSPWAMDYWGQGTLVTVSSASTKGPQVQLVQSGAEVKKPGASVKISCKASGYSFTAYYIHWVKQAPGQGLEWIGYISSYNGATNYNQKFKGRVTFTTDTSTSTAYMELRSLRSDDTAVYYCARDYDYDVGMDYWGQGTLVTVSS
VL: DIQMTQSPSSLSASVGDRVTITCRASQVIRRSLAWYQQKPGKAPKLLIYAASNLASGVPSRFSGSGSGTDFTLTISSLQPEDFATYYCQQSNTSPLTFGQGTKVEIKRTVAAPSVFIFPPDIVMTQSPDSLAVSLGERATISCRASESVDNYGISFMKWFQQKPGQPPKLLIYAASNQGSGVPDRFSGSGSGTDFTLTISSLQAEDVAVYYCQQSKEVPWTFGGGTKVEIKR
notes: DVD-Ig, outer AB071 / inner AB069; HC linker short, LC linker long; also called DVD464H; DVD464L
B7: DVD450 (bispecific antibody, IgG1)
VH: EVQLVESGGGLVQPGGSLRLSCAASGFTISDYWIHWVRQAPGKGLEWVAGITPAGGYTYYADSVKGRFTISADTSKNTAYLQMNSLRAEDTAVYYCARFVFFLPYAMDYWGQGTLVTVSSASTKGPSVFPLAPQVQLVQSGAEVKKPGASVKISCKASGYSFTAYYIHWVKQAPGQGLEWIGYISSYNGATNYNQKFKGRVTFTTDTSTSTAYMELRSLRSDDTAVYYCARDYDYDVGMDYWGQGTLVTVSS
VL: DIQMTQSPSSLSASVGDRVTITCRASQDVSTAVAWYQQKPGKAPKLLIYSASFLYSGVPSRFSGSGSGTDFTLTISSLQPEDFATYYCQQSYTTPPTFGQGTKVEIKRTVAAPSVFIFPPDIVMTQSPDSLAVSLGERATISCRASESVDNYGISFMKWFQQKPGQPPKLLIYAASNQGSGVPDRFSGSGSGTDFTLTISSLQAEDVAVYYCQQSKEVPWTFGGGTKVEIKR
notes: HC linker long, LC linker long; also called DVD450H; DVD450L
B8: DVD458 (bispecific antibody, IgG1)
VH: EVQLVESGGGLVQPGGSLRLSCAASGFTINASWIHWVRQAPGKGLEWVGAIYPYSGYTNYADSVKGRFTISADTSKNTAYLQMNSLRAEDTAVYYCARWGHSTSPWAMDYWGQGTLVTVSSASTKGPSVFPLAPQVQLVQSGAEVKKPGASVKISCKASGYSFTAYYIHWVKQAPGQGLEWIGYISSYNGATNYNQKFKGRVTFTTDTSTSTAYMELRSLRSDDTAVYYCARDYDYDVGMDYWGQGTLVTVSS
VL: DIQMTQSPSSLSASVGDRVTITCRASQVIRRSLAWYQQKPGKAPKLLIYAASNLASGVPSRFSGSGSGTDFTLTISSLQPEDFATYYCQQSNTSPLTFGQGTKVEIKRTVAAPDIVMTQSPDSLAVSLGERATISCRASESVDNYGISFMKWFQQKPGQPPKLLIYAASNQGSGVPDRFSGSGSGTDFTLTISSLQAEDVAVYYCQQSKEVPWTFGGGTKVEIKR
notes: DVD-Ig, outer AB071 / inner AB069; HC linker long, LC linker short; also called DVD458H; DVD458L
B9: DVD524 (bispecific antibody, IgG1)
VH: EVQLVESGGGLVQPGGSLRLSCAASGYTFTNYGMNWVRQAPGKGLEWVGWINTYTGEPTYAADFKRRFTFSLDTSKSTAYLQMNSLRAEDTAVYYCAKYPHYYGSSHWYFDVWGQGTLVTVSSASTKGPSVFPLAPEVQLQQSGPELEKPGASVKISCKASGYSFTGYNMNWVKQSNGKSLEWIGNIDPYFGGTNYNQKFKGKATLTVDKSSSTAYMQLKSLTSEDSAVYYCARNYDYDGGCFDYWGQGTTLTVSS
VL: DIQMTQSPSSLSASVGDRVTITCSASQDISNYLNWYQQKPGKAPKVLIYFTSSLHSGVPSRFSGSGSGTDFTLTISSLQPEDFATYYCQQYSTVPWTFGQGTKVEIKRTVAAPQAVVTQESALTTSPGETVTLTCRSSTGAVTTSNYANWVQEKPDHLFTGLIGGTNNRAPGVPARFSGSLIGDKAALTITGAQTEDEAIYFCALWYSNHWVFGGGTKLTVLG
notes: HC linker long, LC linker short; also called DVD524H; DVD524L
B10: DVD444 (bispecific antibody, IgG1)
VH: EVQLVESGGGLVQPGGSLRLSCAASGFTISDYWIHWVRQAPGKGLEWVAGITPAGGYTYYADSVKGRFTISADTSKNTAYLQMNSLRAEDTAVYYCARFVFFLPYAMDYWGQGTLVTVSSASTKGPQVQLVQSGAEVKKPGASVKISCKASGYSFTAYYIHWVKQAPGQGLEWIGYISSYNGATNYNQKFKGRVTFTTDTSTSTAYMELRSLRSDDTAVYYCARDYDYDVGMDYWGQGTLVTVSS
VL: DIQMTQSPSSLSASVGDRVTITCRASQDVSTAVAWYQQKPGKAPKLLIYSASFLYSGVPSRFSGSGSGTDFTLTISSLQPEDFATYYCQQSYTTPPTFGQGTKVEIKRTVAAPDIVMTQSPDSLAVSLGERATISCRASESVDNYGISFMKWFQQKPGQPPKLLIYAASNQGSGVPDRFSGSGSGTDFTLTISSLQAEDVAVYYCQQSKEVPWTFGGGTKVEIKR
notes: HC linker short, LC linker short; also called DVD444H; DVD444L
B11: DVD456 (bispecific antibody, IgG1)
VH: EVQLVESGGGLVQPGGSLRLSCAASGFTISDYWIHWVRQAPGKGLEWVAGITPAGGYTYYADSVKGRFTISADTSKNTAYLQMNSLRAEDTAVYYCARFVFFLPYAMDYWGQGTLVTVSSASTKGPSVFPLAPQVQLVQSGAEVKKPGASVKISCKASGYSFTAYYIHWVKQAPGQGLEWIGYISSYNGATNYNQKFKGRVTFTTDTSTSTAYMELRSLRSDDTAVYYCARDYDYDVGMDYWGQGTLVTVSS
VL: DIQMTQSPSSLSASVGDRVTITCRASQDVSTAVAWYQQKPGKAPKLLIYSASFLYSGVPSRFSGSGSGTDFTLTISSLQPEDFATYYCQQSYTTPPTFGQGTKVEIKRTVAAPDIVMTQSPDSLAVSLGERATISCRASESVDNYGISFMKWFQQKPGQPPKLLIYAASNQGSGVPDRFSGSGSGTDFTLTISSLQAEDVAVYYCQQSKEVPWTFGGGTKVEIKR
notes: HC linker long, LC linker short; also called DVD456H; DVD456L
B12: DVD462 (bispecific antibody, IgG1)
VH: EVQLVESGGGLVQPGGSLRLSCAASGFTISDYWIHWVRQAPGKGLEWVAGITPAGGYTYYADSVKGRFTISADTSKNTAYLQMNSLRAEDTAVYYCARFVFFLPYAMDYWGQGTLVTVSSASTKGPQVQLVQSGAEVKKPGASVKISCKASGYSFTAYYIHWVKQAPGQGLEWIGYISSYNGATNYNQKFKGRVTFTTDTSTSTAYMELRSLRSDDTAVYYCARDYDYDVGMDYWGQGTLVTVSS
VL: DIQMTQSPSSLSASVGDRVTITCRASQDVSTAVAWYQQKPGKAPKLLIYSASFLYSGVPSRFSGSGSGTDFTLTISSLQPEDFATYYCQQSYTTPPTFGQGTKVEIKRTVAAPSVFIFPPDIVMTQSPDSLAVSLGERATISCRASESVDNYGISFMKWFQQKPGQPPKLLIYAASNQGSGVPDRFSGSGSGTDFTLTISSLQAEDVAVYYCQQSKEVPWTFGGGTKVEIKR
notes: HC linker short, LC linker long; also called DVD462H; DVD462L

Chain of VEGF (VEGF 1-165 aa, R&D Systems 293-VE-010) (P15692 other isoform, or with tags, fused parts or gaps limits assumed): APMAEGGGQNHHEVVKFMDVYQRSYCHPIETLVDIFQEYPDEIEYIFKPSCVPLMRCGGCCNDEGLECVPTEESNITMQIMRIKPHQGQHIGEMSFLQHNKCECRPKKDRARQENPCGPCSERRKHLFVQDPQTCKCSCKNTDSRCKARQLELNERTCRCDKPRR

This test has as its target VEGF (VEGF 1-165 aa, R&D Systems 293-VE-010) (UniProt P15692 27-191). Kind of test: Direct bind ELISA, VEGF coated on plate.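 Also: ELISA screening of antibodies for binding to the plate-coated target antigen.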
B1 showed an EC50 of 611 nM.

B2: the EC50 came out at 10.4 nM.

For the molecule B3, the EC50 came out at 26.7 nM.

With B4, the EC50 amounted to 1730 nM.

B5 came in with an EC50 of 15.6 nM.

In turn, B6 displayed an EC50 of 19.3 nM.

The molecule B7 registered a 50% effective concentration (EC50) of 12.1 nM.

Regarding B8, the EC50 turned out to be 21.5 nM.

Molecule B9 had an EC50 of 0.3 nM.

For the molecule B10, the EC50 stood at 2.44 nM.

For B11, a half-maximal effect (EC50) was put at 1.63 nM.

B12 yielded an EC50 of 8 nM.

By EC50 is commonly meant the concentration at which the effect is half-maximal. High values mean weaker potency, low ones greater potency.
